Source: US20130195875A1

How the values were obtained:
[1] = molecular target: human recombinant adrenomedullin receptor (CRLR+RAMP3) (human)
[2] = molecular target: ADM (human or mouse, not stated for this row); test: cell-based or functional assay

| Substance | EC50 (read off the curve) [1] [nM] | Maximal inhibition of ADM bioactivity (ADM-Bioassay) (%) [2] [%] |
| --- | --- | --- |
| human adrenomedullin (hADM 1-52) (peptide) | 1 | – |
| Non specific mouse IgG (antibody) | – | 0 |
